Article PMC10170503, “Oral Delivery of Nanoparticles Carrying Ancestral Uricase Enzyme Protects against Hyperuricemia in Knockout Mice” (Biomacromolecules, 2023)

Target: the molecule itself
Test: microfluidic denaturing gel electrophoresis (Bioanalyzer); Agilent Bioanalyzer 2100, Protein 80 chip; purified Qβ-wt and Qβ@AncUOX particles; dimer band left by incomplete denaturation

B1: Qβ capsid protein (coat protein), assembled as virus-like particle (natural protein, Qβ (bacteriophage, as named), UniProt P03615 1-133, looked up)
chain: MAKLETVTLGNIGKDGKQTLVLNPRGVNPTNGVASLSQAGAVPALEKRVTVSVSQPSRNRKNYKVQVKIQNPTACTANGSCDPSVTRQAYADVTFSFTQYSTDEERAFVRTELAALLASPLLIDAIDQLNPAY
notes: also called Qβ CP; CP; source: E. coli BL21 (DE3), co-expressed with Rev-tagged AncUOX from a bicistronic pCDF-1b plasmid; VLPs purified (ammonium sulfate precipitation, n-butanol:chloroform extraction, sucrose density ultracentrifugation)
  stoichiometry N: 2
